Results as given in article PMC7515715 (Nucleic Acids Research, 2020).

Target: the molecule itself
Test: cryo-EM structure

B1: E. coli stringent starvation protein A (SspA), wild type (natural protein)
chain: MAVAANKRSVMTLFSGPTDIYSHQVRIVLAEKGVSFEIEHVEKDNPPQDLIDLNPNQSVPTLVDRELTLWESRIIMEYLDERFPHPPLMPVYPVARGESRLYMHRIEKDWYTLMNTIINGSASEADAARKQLREELLAIAPVFGQKPYFLSDEFSLVDCYLAPLLWRLPQLGIEFSGPGAKELKGYMTRVFERDSFLASLTEAEREMRLGRS
  stoichiometry N: 2
